The values below are quoted from earlier work in PMC6787260.

Where two headings read alike, the source gives them in different places.

Data set [1] has as its target PDK1 (Homo sapiens) (UniProt O15530). The data set can be described thus: time resolved-FRET.
For data set [2] the target is unchanged. The data set can be described thus: time resolved-FRET. The source holds these as a separate data set.

On to PDK1 (from UniProt O15530), for which the Kd (commonly the concentration at which binding is half-saturated) with PDK1 (Homo sapiens) [1] was 11 µM; in the data set with PDK1 (Homo sapiens) [2], 49 µM.
